Laboratory results reported in patent US20240010735A1 (EISAI R AND D MANAGEMENT, published 2024).

How the values were obtained:
Experiment in all cases: ELISA: Fc-His proteins (1 nM) captured on anti-6-His antibody, antibody A 10 µg/mL with human IgG 100 µg/mL, HRP anti-mouse IgG, OD450 as % of mouse EphA4-Fc-His
[1] = molecular target: T1, mouse EphB1 extracellular region-Fc-His protein (mouse; human, UniProt Q8CBF3 18-540)
T1 construct: extracellular domain; not shown: Fc region of human IgG1; histidine tag
T1 sequence (looked up): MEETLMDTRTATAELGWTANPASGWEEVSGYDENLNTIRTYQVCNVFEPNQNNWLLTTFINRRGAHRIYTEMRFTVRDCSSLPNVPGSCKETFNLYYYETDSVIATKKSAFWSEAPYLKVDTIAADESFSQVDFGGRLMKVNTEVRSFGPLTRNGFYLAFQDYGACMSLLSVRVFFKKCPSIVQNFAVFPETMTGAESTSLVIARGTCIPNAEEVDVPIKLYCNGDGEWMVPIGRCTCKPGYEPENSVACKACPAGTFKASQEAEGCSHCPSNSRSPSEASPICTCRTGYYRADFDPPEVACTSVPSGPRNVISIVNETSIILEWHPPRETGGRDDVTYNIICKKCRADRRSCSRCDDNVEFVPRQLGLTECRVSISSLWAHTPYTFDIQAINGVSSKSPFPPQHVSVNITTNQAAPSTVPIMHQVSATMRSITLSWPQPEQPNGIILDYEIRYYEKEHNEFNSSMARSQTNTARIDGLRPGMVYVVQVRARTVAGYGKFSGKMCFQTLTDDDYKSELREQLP
Protocol: (§1) Rabbit anti-6-His antibodies (Bethyl Laboratories) were coated onto the wells of a 96-well plate (Nunc). After incubating at 4° C. overnight, the wells were blocked at room temperature for 1 hour by 1% Block Ace (DS Pharma Biomedical). After washing 3 times with 0.05% Tween 20/PBS (Thermo […]), each Eph receptor of mouse extracellular region-Fc-His protein (final concentration 1 nM) was seeded into each well, and incubated at room temperature for 1 hour. After washing 3 times, human IgG solution (100 μg/mL, Sigma) and antibody A (10 μg/mL) were supplemented to the wells, and incubated at room temperature for 1 hour. Horseradish peroxidase-labeled donkey anti-mouse IgG antibody (Jackson ImmunoResearch Laboratories) was added, and incubated at room temperature for 1 hour. After washing 3 times, TMBZ (3,3′,5,5′-tetramethylbenzidine, Sigma) solution was added to the wells, and upon confirmation of modest coloring, an equal amount of quenching solution (1 N H₂SO₄, Wako Pure Chemicals) was added to the wells, and absorbance at 450 nm was read by a microplate reader (PerkinElmer).

[2] = molecular target: T2, mouse EphB3 extracellular region-Fc-His protein (mouse; human, UniProt P54754 30-554)
T2 construct: extracellular domain; not shown: Fc region of human IgG1; histidine tag
T2 sequence (looked up): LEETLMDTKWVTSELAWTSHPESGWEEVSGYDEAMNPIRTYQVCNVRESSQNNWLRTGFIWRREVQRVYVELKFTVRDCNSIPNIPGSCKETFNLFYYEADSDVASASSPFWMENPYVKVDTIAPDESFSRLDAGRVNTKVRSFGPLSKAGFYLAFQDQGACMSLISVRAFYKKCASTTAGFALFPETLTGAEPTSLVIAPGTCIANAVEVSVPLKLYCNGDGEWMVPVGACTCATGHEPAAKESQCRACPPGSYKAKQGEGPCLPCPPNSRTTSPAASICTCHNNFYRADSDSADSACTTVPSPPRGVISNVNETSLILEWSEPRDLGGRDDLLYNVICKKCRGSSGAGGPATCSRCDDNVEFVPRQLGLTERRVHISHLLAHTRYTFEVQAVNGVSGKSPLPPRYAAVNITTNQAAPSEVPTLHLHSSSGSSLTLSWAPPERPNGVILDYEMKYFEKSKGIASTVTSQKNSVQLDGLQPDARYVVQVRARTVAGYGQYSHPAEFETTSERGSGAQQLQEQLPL
Protocol: as §1

[3] = molecular target: T3, mouse EphB2 extracellular region-Fc-His protein (mouse; human, UniProt P54763 19-543)
T3 construct: extracellular domain; not shown: Fc region of human IgG1; histidine tag
T3 sequence (looked up): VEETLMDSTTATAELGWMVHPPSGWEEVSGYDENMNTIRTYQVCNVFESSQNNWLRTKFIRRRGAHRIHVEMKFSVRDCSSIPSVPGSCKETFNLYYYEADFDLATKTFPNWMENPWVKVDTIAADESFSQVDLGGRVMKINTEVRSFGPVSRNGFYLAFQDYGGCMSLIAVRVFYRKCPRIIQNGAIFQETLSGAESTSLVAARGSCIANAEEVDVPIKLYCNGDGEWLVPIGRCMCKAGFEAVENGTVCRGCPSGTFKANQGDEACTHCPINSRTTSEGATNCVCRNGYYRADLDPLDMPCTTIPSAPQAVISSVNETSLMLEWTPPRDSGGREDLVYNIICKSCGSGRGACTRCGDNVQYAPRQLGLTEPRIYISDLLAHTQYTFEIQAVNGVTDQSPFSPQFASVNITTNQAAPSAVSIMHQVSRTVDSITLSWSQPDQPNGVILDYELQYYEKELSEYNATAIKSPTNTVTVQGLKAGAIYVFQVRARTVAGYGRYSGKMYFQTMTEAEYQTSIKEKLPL
Protocol: as §1

Measured: binding result

B1: mouse anti-EphA4 monoclonal antibody (antibody A) (antibody, mouse IgG1, kappa, V domains shown)
VH: QVQLKQSGPSLVQPSQSLSITCTVSGFSLTRYGVHWVRQSPGKGLEWLGVIWRGGSTDYNAAFMSRLSITKDNSKSQVFFKMNSLQADDTAIYYCAKESLFGVYYDYGYYSMDYWGQGTSVTVSS
VL: DIQMTQSPSSLSASLGERVSLTCRASQEISGYLSWLQQKPDGTIKRLIYAASTLDSGVPKRFSGSRSGSDYSLTISSLESEDFADYYCLQYASYPLTFGAGTKLELKR
notes: purified from hybridoma supernatant
no binding (tested: 10 µg/mL): all assays above
